The values that follow come from patent publication US20220411483A1 (Chugai, published 2022).

As a reminder, the Kd is the concentration at which binding is half-saturated.

The target in experiment [1] is T1, FcγRIIa R type extracellular domain with C-terminal His tag (human, UniProt P12318 34-217).
T1 construct: extracellular domain; also called FcgRIIaR; not shown: His tag at the C terminus
T1 sequence (looked up): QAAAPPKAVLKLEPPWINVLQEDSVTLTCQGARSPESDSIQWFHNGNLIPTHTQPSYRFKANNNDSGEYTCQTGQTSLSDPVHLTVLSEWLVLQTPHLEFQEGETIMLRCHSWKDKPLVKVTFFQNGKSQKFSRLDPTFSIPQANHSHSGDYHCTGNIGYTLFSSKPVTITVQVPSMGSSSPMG
Briefly: SPR, antibody captured, FcgR analyte. (In general: In SPR one partner is held on a chip, and binding of the other changes the refractive index at the surface.)

Experiment [2] has as its target T2, FcγRIIa H type extracellular domain with C-terminal His tag (human, UniProt P12318 34-217).
T2 construct: extracellular domain; also called FcgRIIaH; not shown: His tag at the C terminus
T2 sequence (looked up): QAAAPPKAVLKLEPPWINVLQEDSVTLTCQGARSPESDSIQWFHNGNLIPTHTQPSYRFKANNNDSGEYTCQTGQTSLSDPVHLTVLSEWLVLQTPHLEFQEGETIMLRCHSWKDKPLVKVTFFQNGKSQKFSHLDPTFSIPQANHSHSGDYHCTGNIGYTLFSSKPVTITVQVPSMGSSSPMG
In words: SPR, antibody captured, FcgR analyte.

The target of experiment [3] is T3, FcγRIa extracellular domain with C-terminal His tag (human, UniProt P12314 16-292).
T3 construct: also called FcgRIa; CD64; not shown: His tag at the C terminus
In words: SPR, antibody captured, FcgR analyte.

Experiment [4] deals with T4, FcγRIIb extracellular domain with C-terminal His tag (human, UniProt P31994 43-217).
T4 construct: extracellular domain; also called FcgRIIb; not shown: His tag at the C terminus
T4 sequence (looked up): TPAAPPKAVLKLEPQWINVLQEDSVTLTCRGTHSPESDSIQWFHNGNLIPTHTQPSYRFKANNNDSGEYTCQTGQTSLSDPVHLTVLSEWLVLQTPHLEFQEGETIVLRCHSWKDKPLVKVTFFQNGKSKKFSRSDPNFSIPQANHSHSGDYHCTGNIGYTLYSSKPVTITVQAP
Briefly: SPR, antibody captured, FcgR analyte.

In experiment [5] the target is T1, FcγRIIa R type extracellular domain …. Briefly: SPR; KD of IL6R-B3/IL6R-L divided by KD of variant.
The target in experiment [6] is T4, FcγRIIb extracellular domain with …. In words: SPR; KD of IL6R-B3/IL6R-L divided by KD of variant.

T3 sequence (P12314 16-292): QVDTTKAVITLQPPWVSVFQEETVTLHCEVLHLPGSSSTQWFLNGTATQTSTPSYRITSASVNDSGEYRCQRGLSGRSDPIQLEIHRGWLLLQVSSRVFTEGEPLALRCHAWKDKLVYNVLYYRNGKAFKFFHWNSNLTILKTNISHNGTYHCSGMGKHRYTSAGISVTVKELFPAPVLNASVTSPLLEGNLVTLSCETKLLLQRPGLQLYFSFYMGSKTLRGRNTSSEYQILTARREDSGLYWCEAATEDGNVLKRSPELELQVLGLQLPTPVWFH

B1: IL6R-BP489/IL6R-L (antibody, human IgG1, kappa, name in EU numbering)
heavy: QVQLQESGPGLVKPSETLSLTCAVSGHSISHDHAWSWVRQPPGEGLEWIGFISYSGITNYNPSLQGRVTISRDNSKNTLYLQMNSLRAEDTAVYYCARSLARTTAMDYWGEGTLVTVSSASTKGPSVFPLAPSSKSTSGGTAALGCLVKDYFPEPVTVSWNSGALTSGVHTFPAVLQSSGLYSLSSVVTVPSSSLGTQTYICNVNHKPSNTKVDKKVEPKSCDKTHTCPPCPAPDLLGDDSVFLFPPKPKDTLMISRTPEVTCVVIDVAEEDGEVKFNWYVDGVEVHNAKTKPREEQDNSTYRVVSVLTVLHQDWLNGKEYKCKVSNKALPRPIEKTISKAKGQPREPQVYTLPPSRDELTKNQVSLTCLVKGFYPSDIAVEWESNGQPENNYKTTPMVLDSDGSFFLYSKLTVDKSRWQQGNVFSCSVMHEALHNHYTQESLSLSP
light: not shown
notes: human IgG1
Turning to B1, the Kd was determined as 43 nM in experiment [1], 870 nM in experiment [2], 1.3 nM in experiment [3] and 1 nM in experiment [4]. For the same molecule, the “Relative FcgRIIaR-binding Activity” value in experiment [5] is 25.2. The “Relative FcgRIIb-binding Activity” value in experiment [6] worked out at 3090.

B2: IL6R-BP499/IL6R-L (antibody, human IgG1, kappa, name in EU numbering)
heavy: QVQLQESGPGLVKPSETLSLTCAVSGHSISHDHAWSWVRQPPGEGLEWIGFISYSGITNYNPSLQGRVTISRDNSKNTLYLQMNSLRAEDTAVYYCARSLARTTAMDYWGEGTLVTVSSASTKGPSVFPLAPSSKSTSGGTAALGCLVKDYFPEPVTVSWNSGALTSGVHTFPAVLQSSGLYSLSSVVTVPSSSLGTQTYICNVNHKPSNTKVDKKVEPKSCDKTHTCPPCPAPDLLGDDSVFLFPPKPKDTLMISRTPEVTCVVIDVAEEDGEVKFNWYVDGVEVHNAKTKPREEQDNSTYRVVSVLTVLHQDWLNGKEYKCKVSNKALPRPIEKTISKAKGQPREPQVYTLPPSRDELTKNQVSLTCLVKGFYPSDIAVEWESNGQPENNYKTTPLVLDSDGSFFLYSKLTVDKSRWQQGNVFSCSVMHEALHNHYTQESLSLSP
light: not shown
notes: human IgG1
As for B2, the Kd in experiment [1] is 49 nM; in experiment [2], 1000 nM; in experiment [3] it was 1.2 nM; in experiment [4], 1.5 nM. Besides, in experiment [5], the “Relative FcgRIIaR-binding Activity” value turned out to be 21.9. For the same molecule, the “Relative FcgRIIb-binding Activity” value in experiment [6] worked out at 2120.

B3: IL6R-BP502/IL6R-L (antibody, human IgG1, kappa, name in EU numbering)
heavy: QVQLQESGPGLVKPSETLSLTCAVSGHSISHDHAWSWVRQPPGEGLEWIGFISYSGITNYNPSLQGRVTISRDNSKNTLYLQMNSLRAEDTAVYYCARSLARTTAMDYWGEGTLVTVSSASTKGPSVFPLAPSSKSTSGGTAALGCLVKDYFPEPVTVSWNSGALTSGVHTFPAVLQSSGLYSLSSVVTVPSSSLGTQTYICNVNHKPSNTKVDKKVEPKSCDKTHTCPPCPAPDLLGDDSVFLFPPKPKDTLMISRTPEVTCVVIDVAEEDGEVKFNWYVDGVEVHNAKTKPREEQDNSTYRVVSVLTVLHQDWLNGKEYKCKVSNKGLPRPIEKTISKAKGQPREPQVYTLPPSRDELTKNQVSLTCLVKGFYPSDIAVEWESNGQPENNYKTTPPVLDSDGSFFLYSKLTVDKSRWQQGNVFSCSVMHEALHNHYTQESLSLSP
light: not shown
notes: human IgG1
Consider B3, for which the dissociation constant (Kd) in experiment [1] stood at 110 nM; in experiment [2] it was 1300 nM; in experiment [3], 2.1 nM; in experiment [4] it was 3.7 nM. For the same molecule, in experiment [5], the “Relative FcgRIIaR-binding Activity” value was 9.9. In addition, the “Relative FcgRIIb-binding Activity” value in experiment [6] was found to be 837.

B4: IL6R-BP503/IL6R-L (antibody, human IgG1, kappa, name in EU numbering)
heavy: QVQLQESGPGLVKPSETLSLTCAVSGHSISHDHAWSWVRQPPGEGLEWIGFISYSGITNYNPSLQGRVTISRDNSKNTLYLQMNSLRAEDTAVYYCARSLARTTAMDYWGEGTLVTVSSASTKGPSVFPLAPSSKSTSGGTAALGCLVKDYFPEPVTVSWNSGALTSGVHTFPAVLQSSGLYSLSSVVTVPSSSLGTQTYICNVNHKPSNTKVDKKVEPKSCDKTHTCPPCPAPDLLGDDSVFLFPPKPKDTLMISRTPEVTCVVIDVAEEDGEVKFNWYVDGVEVHNAKTKPREEQDNSTYRVVSVLTVLHQDWLNGKEYKCKVSNKGLPRPIEKTISKAKGQPREPQVYTLPPSRDELTKNQVSLTCLVKGFYPSDIAVEWESNGQPENNYKTTPMVLDSDGSFFLYSKLTVDKSRWQQGNVFSCSVMHEALHNHYTQESLSLSP
light: not shown
notes: human IgG1
On to B4, for which the Kd in experiment [1] came to 57 nM; in experiment [2], 860 nM; in experiment [3], 1.2 nM; in experiment [4] it was 1.7 nM. In addition, in experiment [5], the “Relative FcgRIIaR-binding Activity” value came to 19. Besides, in experiment [6], the “Relative FcgRIIb-binding Activity” value amounted to 1810.

B5: IL6R-BP497/IL6R-L (antibody, human IgG1, kappa, name in EU numbering)
heavy: QVQLQESGPGLVKPSETLSLTCAVSGHSISHDHAWSWVRQPPGEGLEWIGFISYSGITNYNPSLQGRVTISRDNSKNTLYLQMNSLRAEDTAVYYCARSLARTTAMDYWGEGTLVTVSSASTKGPSVFPLAPSSKSTSGGTAALGCLVKDYFPEPVTVSWNSGALTSGVHTFPAVLQSSGLYSLSSVVTVPSSSLGTQTYICNVNHKPSNTKVDKKVEPKSCDKTHTCPPCPAPDLLGDDSVFLFPPKPKDTLMISRTPEVTCVVIDVAEEDGEVKFNWYVDGVEVHNAKTKPREEQYNSTYRVVSVLTVLHQDWLNGKEYKCKVSNKGLPRPIEKTISKAKGQPREPQVYTLPPSRDELTKNQVSLTCLVKGFYPSDIAVEWESNGQPENNYKTTPPVLDSDGSFFLYSKLTVDKSRWQQGNVFSCSVMHEALHNHYTQESLSLSP
light: not shown
notes: human IgG1
Regarding B5, the Kd in experiment [1] amounted to 85 nM; in experiment [2] it was 960 nM; in experiment [3], 2.1 nM; in experiment [4] it was 4.1 nM. Further, the “Relative FcgRIIaR-binding Activity” value in experiment [5] came to 12.6. The “Relative FcgRIIb-binding Activity” value in experiment [6] turned out to be 761.

B6: IL6R-BP498/IL6R-L (antibody, human IgG1, kappa, name in EU numbering)
heavy: QVQLQESGPGLVKPSETLSLTCAVSGHSISHDHAWSWVRQPPGEGLEWIGFISYSGITNYNPSLQGRVTISRDNSKNTLYLQMNSLRAEDTAVYYCARSLARTTAMDYWGEGTLVTVSSASTKGPSVFPLAPSSKSTSGGTAALGCLVKDYFPEPVTVSWNSGALTSGVHTFPAVLQSSGLYSLSSVVTVPSSSLGTQTYICNVNHKPSNTKVDKKVEPKSCDKTHTCPPCPAPDLLGDDSVFLFPPKPKDTLMISRTPEVTCVVIDVAEEDGEVKFNWYVDGVEVHNAKTKPREEQYNSTYRVVSVLTVLHQDWLNGKEYKCKVSNKALPRPIEKTISKAKGQPREPQVYTLPPSRDELTKNQVSLTCLVKGFYPSDIAVEWESNGQPENNYKTTPLVLDSDGSFFLYSKLTVDKSRWQQGNVFSCSVMHEALHNHYTQESLSLSP
light: not shown
notes: human IgG1
For the molecule B6, the dissociation constant (Kd) in experiment [1] worked out at 51 nM; in experiment [2] it was 930 nM; in experiment [3] it was 1.3 nM; in experiment [4], 1.7 nM. Moreover, the “Relative FcgRIIaR-binding Activity” value in experiment [5] is 21.3. Besides, the “Relative FcgRIIb-binding Activity” value in experiment [6] worked out at 1870.

B7: IL6R-BP491/IL6R-L (antibody, human IgG1, kappa, name in EU numbering)
heavy: QVQLQESGPGLVKPSETLSLTCAVSGHSISHDHAWSWVRQPPGEGLEWIGFISYSGITNYNPSLQGRVTISRDNSKNTLYLQMNSLRAEDTAVYYCARSLARTTAMDYWGEGTLVTVSSASTKGPSVFPLAPSSKSTSGGTAALGCLVKDYFPEPVTVSWNSGALTSGVHTFPAVLQSSGLYSLSSVVTVPSSSLGTQTYICNVNHKPSNTKVDKKVEPKSCDKTHTCPPCPAPELLGDDSVFLFPPKPKDTLMISRTPEVTCVVIDVAEEDGEVKFNWYVDGVEVHNAKTKPREEQDNSTYRVVSVLTVLHQDWLNGKEYKCKVSNKALPRPIEKTISKAKGQPREPQVYTLPPSRDELTKNQVSLTCLVKGFYPSDIAVEWESNGQPENNYKTTPPVLDSDGSFFLYSKLTVDKSRWQQGNVFSCSVMHEALHNHYTQESLSLSP
light: not shown
notes: human IgG1
For the molecule B7, the Kd in experiment [1] is 120 nM; in experiment [2], 2200 nM; in experiment [3] it was 5.3 nM; in experiment [4], 3 nM. For the same molecule, in experiment [5], the “Relative FcgRIIaR-binding Activity” value stood at 9.2. Further, in experiment [6], the “Relative FcgRIIb-binding Activity” value stood at 1020.

B8: IL6R-BP496/IL6R-L (antibody, human IgG1, kappa, name in EU numbering)
heavy: QVQLQESGPGLVKPSETLSLTCAVSGHSISHDHAWSWVRQPPGEGLEWIGFISYSGITNYNPSLQGRVTISRDNSKNTLYLQMNSLRAEDTAVYYCARSLARTTAMDYWGEGTLVTVSSASTKGPSVFPLAPSSKSTSGGTAALGCLVKDYFPEPVTVSWNSGALTSGVHTFPAVLQSSGLYSLSSVVTVPSSSLGTQTYICNVNHKPSNTKVDKKVEPKSCDKTHTCPPCPAPDLLGDDSVFLFPPKPKDTLMISRTPEVTCVVIDVAEEDGEVKFNWYVDGVEVHNAKTKPREEQDNSTYRVVSVLTVLHQDWLNGKEYKCKVSNKALPAPIEKTISKAKGQPREPQVYTLPPSRDELTKNQVSLTCLVKGFYPSDIAVEWESNGQPENNYKTTPPVLDSDGSFFLYSKLTVDKSRWQQGNVFSCSVMHEALHNHYTQESLSLSP
light: not shown
notes: human IgG1
Turning to B8, the equilibrium dissociation constant (Kd) came to 470 nM in experiment [1], 3700 nM in experiment [2], 1.2 nM in experiment [3] and 18 nM in experiment [4]. Moreover, the “Relative FcgRIIaR-binding Activity” value in experiment [5] was 2.3. In addition, the “Relative FcgRIIb-binding Activity” value in experiment [6] was found to be 168.
